Source: the supplement of paper PMC9732359
± gives the uncertainty stated by the source.

Assay: protein stability index of a GFP-peptide fusion (yeast GPS) (PSI 1-4); higher = more stable; sorted into four equal gates, so the index is relative within each strain
Conditions: pdr5∆
In short: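 Mid-log yeast cultures in leucine-free medium, carrying a pooled plasmid library, were sorted into four equal gates by their GFP/Cherry fluorescence ratio. Each plasmid expressed Cherry along with GFP fused upstream of a tiled 17-residue yeast protein peptide. Plasmids recovered from each gate were PCR-amplified and Illumina-sequenced, with reads assigned to strains by barcodes. The protein stability index was obtained by summing each gate's read frequency weighted by its gate number.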

Sequence	protein stability index
AGVLNGTLEYGTCFGGS [RET1]	2.91 ± 0.057
AGVQGSKVSKQQAKGAF [RPL24B]	3.21 ± 0.11
AHCILGIGGDHAKFSPV [RPC40]	2.82 ± 0.15
AHKLKKSLDSIPMSKTI [FAS2]	3.01 ± 0.078
AHRGIRHFWGLRVRGQH [RPS18A]	2.73 ± 0.083
AHRNGIKKPKTYKYPSL [RPL29]	2.96 ± 0.15
AHTPMLQMYSKIRRHPN [FAS1]	3.03 ± 0.063
AIGCIERSDLLPYLSDT [YJR042W/NUP85]	2.96 ± 0.098
AIKKKEKLLRHVDSLIE [SRB7]	2.88 ± 0.12
AIVVGWRAIIKAIFPNT [FAS1]	2.71 ± 0.14
AKEVYKIHQQLLFKARL [GAL11]	3.18 ± 0.18
AKICALLFFNFSHSLTT [NUT1]	1.45 ± 0.036
AKKLIQSLPPTLKVNRL [RPL38]	2.2 ± 0.039
AKKLSSFDFGNENEDED [ARP9]	3.13 ± 0.12
AKKSTTISKESTPDQRK [ESC2]	2.78 ± 0.12
AKLLQENDTTLVKTKEL [FAS1]	2.08 ± 0.27
AKLSERSNGSVASLSKR [YJL039C/NUP192]	2.06 ± 0.043
AKNKSTRINGLNSNNSI [REC8]	3.15 ± 0.098
AKPDEKKNDEVSKPAFS [YJL041W/NSP1]	3.11 ± 0.19
AKPFQVTKEYFQDVYDL [FAS1]	2.81 ± 0.074
ALAEGHGDAAVLLVEKY [NAS6]	3.12 ± 0.1
ALAQQKLLTPQDMEAAK [GAL11]	3.38 ± 0.13
ALERNWPIVNSKVYFNN [RPN12]	1.7 ± 0.072
ALFVFYSPNTLGHPDNY [COB]	1.36 ± 0.069
ALGEFADWDPESMAYTA [YML031W/NDC1]	3.54 ± 0.089
ALNDVYLDADVAKLANW [YML031W/NDC1]	3.52 ± 0.22

Sequence	protein stability index
ALNNAIPGGPKFEPLYP [PRP8]	2.96 ± 0.086
ALNSMCASIPIAIIKDT [RRP46]	1.67 ± 0.08
ALRALARSGLRIGRIED [RPS14A]	2.12 ± 0.096
ALRDVKNNNNANNNGSN [GAL11]	2.95 ± 0.14
ALTQMDQDKVNFASGDN [RPB3]	3.5 ± 0.13
ALYVLRERIRKGLQIYQ [PRP8]	2.85 ± 0.11
AMSTVTLGVVGKSEKLS [SKI6]	3.19 ± 0.081
AMTIYWDDHTKKPLSMA [CDC53]	2.67 ± 0.091
ANDEEAYIKLLDQTKDT [SNF2]	3.21 ± 0.072
ANDFQLTIVTCKQFPKL [SRB8]	1.96 ± 0.041
ANFGEILEDFRVIKDFK [YMR153W/NUP53]	3.4 ± 0.16
ANGTVVSFIKNGEEIVG [MTR3]	1.6 ± 0.13
ANICLTFLESINGINWR [SIN4]	2.31 ± 0.046
ANKEKRAIILERNAAYQ [RPL7A]	1.38 ± 0.081
ANPAGASQPEPTTNEPA [YJL041W/NSP1]	3 ± 0.11
ANRVTDKLTRVHDKIWC [PRE3]	2.42 ± 0.085
ANSSTIRVTNSFALPFE [RPN8]	2.18 ± 0.05
ANTGGGLFGANSNSNSG [YGL172W/NUP49]	2.74 ± 0.077
APIGKHYVVLDTNVVLQ [DIS3]	2.81 ± 0.14
APLFKKNSSRPMPPIRG [SMD3]	2.29 ± 0.064
APLKHGVGILYKGMASN [BRR2]	1.68 ± 0.076
APLVLLSALDHYERTQT [RPN8]	2.45 ± 0.053
APNTLTNILISPLNTTT [YML103C/NUP188]	2.13 ± 0.057
APRQEISEEETTVKPLF [YAR002W/NUP60]	3.22 ± 0.11
APTPAAPGASVPATAAP [SWI1]	3.05 ± 0.054
AQFYLGKRIAYVYRASK [RPL33A]	1.62 ± 0.076

Sequence	protein stability index
AQHESFLRQKICLMTLI [RPN9]	1.33 ± 0.082
AQKCGWTIPHKKWNDLK [SIR2]	3.26 ± 0.086
AQLTLKRCKHFELGGEK [RPL42A]	2.46 ± 0.11
AQQLVGVYKRDNRTKST [SMC4]	3.04 ± 0.2
AQYFYSGAYSYPDFRHY [DIS3]	1.43 ± 0.09
ARDEILPLRLQFNEFIQ [PGD1]	3.01 ± 0.065
ARGLTATGKKSRGINKG [RPL15A]	3.37 ± 0.15
ARIIRSELLARDIFQED [RGR1]	2.4 ± 0.087
ARLAILKERAKNISSQL [YGR119C/NUP57]	2.77 ± 0.069
ARQFGYVILTTSAGIMD [RPS22A]	1.33 ± 0.045
ARVKAFDRHCNMVLENV [SMD2]	2.3 ± 0.087
ARVLFDDMVEYEDGTPA [CYT1]	3.09 ± 0.096
ASFGKNLQIRQLFNWCL [DSN1]	1.44 ± 0.051
ASFNDTFVHVTDLSGKE [RPS14A]	1.36 ± 0.093
ASILLALTQMDQDKVNF [RPB3]	3.28 ± 0.094
ASISLPNHIPSVNPSNK [SWP82]	3.05 ± 0.069
ASKGIDRLSLQDRQQLL [ECM29]	3.11 ± 0.07
ASKKSGGDVVKFQKLLQ [SMC4]	3.64 ± 0.12
ASKTNLRLTDVTNSLSN [GAL11]	3.38 ± 0.067
ASLDGTIRLWECGTGTT [RPN14]	2.91 ± 0.13
ASLGIGLAAMGSANIEV [RPN2]	1.76 ± 0.079
ASSAAAGAAGAAAGGDA [RPP2B]	3.02 ± 0.084
ASSGPRYIVGVRNSVDR [RPT4]	1.42 ± 0.19
ASTPSIRPDGRLPHQFR [RRP42]	3.21 ± 0.12
ASTVAKTAPIQESFVPN [YOR098C/NUP1]	2.83 ± 0.11
ASVTKEILGTAQSVGCR [RPL12A]	1.51 ± 0.044

Sequence	protein stability index
ATADTTHLHEALDIVCS [NUT1]	2.55 ± 0.063
ATNANATTDQEGDIHLE [PRE10]	3.39 ± 0.14
ATNRVDVLDPALLRSGR [RPT5]	2.84 ± 0.11
ATPFRQWFEAHYGQTLG [RPS8A]	2.787 ± 0.024
ATPSAKEASQEDDNNNV [YLR335W/NUP2]	2.62 ± 0.056
ATQKESLEMVPKDTSAA [RGR1]	3.25 ± 0.07
ATRTLVASIQNDPSAEV [YCG1]	3.41 ± 0.16
ATTGGLFGSKPQGSTTN [YGR119C/NUP57]	3.37 ± 0.1
ATVDEFPLCVHLVSNEL [RPL10]	2.93 ± 0.067
ATYMDNDIAGQPQALQK [RPO21]	2.49 ± 0.078
AVEQLAGCKIDNVDDIG [YDL088C/ASM4]	2.64 ± 0.071
AVGNLGNAVTVTEDGTV [RPL22A]	1.96 ± 0.094
AVKKLYAIIINYTKDNE [YCS4]	2.05 ± 0.068
AVSKDPLLTKRKDLRDK [DIS3]	3.41 ± 0.13
AVSRSMTDIWNTLIPES [ECM29]	3.05 ± 0.08
AVVFKPFKGEVVDGTVV [RPB7]	3.03 ± 0.048
AVVGNNMLLDPAANESE [RRP42]	1.81 ± 0.073
AYEEEEENEDNDGNNRT [NUT1]	3.37 ± 0.11
AYLLLVQGGNAAPSAAD [RPP2B]	1.98 ± 0.038
CDGDTVWDKFAVNLLNC [SSN2]	3.3 ± 0.098
CDKSVCRKCYARLPPRA [RPL40A]	2.93 ± 0.073
CDLSSKFNKSKAKFTSL [YCS4]	2.79 ± 0.07
CFSQENIEEMARVILYL [SIN4]	2.76 ± 0.14
